{"source": "paper PMC5095173", "about": "“Disulfide-activated protein kinase G Iα regulates cardiac diastolic relaxation and fine-tunes the Frank–Starling response” (Nature Communications, 2016)", "molecules": {"B1": {"name": "G-protein-signaling modulator 1: PKGIα substrate, phospho site S567 (protein, UniProt Q9R080 1-673, looked up)", "G-protein-signaling modulator …": "MASPAPPAAEELPGPAARRLYSRMEASCLELALEGERLCKAGDFKAGVAFFEAAVQVGTEDLKTLSAIYSQLGNAYFYLKEYARALQFHKHDLLLARTIGDRMGEAKASGNLGNTLKVLGRFDEAIVCCQRHLDIAQEQGDKVGEARALYNIGNVYHAKGKQLSWNAAQDPGHLPPDVRETLHRASEFYERNLSLVKELGDRAAQGRAYGNLGNTHYLLGNFTEATTFHKERLAIAKEFGDKAAERRAYSNLGNAHIFLGRFDVAAEHYKKTLQLSRQIRDQAVEAQACYSLGNTYTLLQDYERAAEYHLRHLVIAQELADRVGEGRACWSLGNAYVSMGSPAQALTFAKKHLQISQEIGDRNGELTARMNIAHLQLALGRLTSPAAAEKPDLAGYEAQGARPKRTQRLSAETWDLLRLPLDREQNGETHHTGDWRGPSRDSLPLPMRSRKYQEGPDAIERRPREGSHSPLDSADVRVQVPRTGIPRAPSSDEECFFDLLSKFQSSRMDDQRCPLEEGQAGAAEATAAPTLEERAAQPSVTASPQTEEFFDLIASSQSRRLDDQRASVGSLPGLRITLNNVGHLRGDGDPQEPGDEFFNMLIKYQSSRIDDQRCPPPDVLPRGPTMPDEDFFSLIQRVQAKRMDEQRVDLAGSPDQEASGLPDPRQQCPPGAS", "modifications": "phosphorylated at S567"}, "B2": {"name": "CLIP-associating protein 2: PKGIα substrate, phospho site S436 (protein, UniProt Q99JD4 1-1286, looked up)", "CLIP-associating protein 2": "MRRLICKRICDYKSFDDEESVDGNRPSSAASAFKVPAPKTPGNPVNSARKPGSAGGPKAGGTSKEGGAGAVDEDDFIKAFTDVPSIQIYSSRELEETLNKIREILSDDKHDWDQRANALKKIRSLLVAGAAQYDCFFQHLRLLDGALKLSAKDLRSQVVREACITVAHLSTVLGNKFDHGAEAIVPTLFNLVPNSAKVMATSGCAAIRFIIRHTHVPRLIPLITSNCTSKSVPVRRRSFEFLDLLLQEWQTHSLERHAAVLVETIKKGIHDADAEARVEARKTYMGLRNHFPGEAETLYNSLEPSYQKSLQTYLKSSGSVASLPQSDRSSSSSQESLNRPFSSKWSTANPSAVAGRVSVGGSKASPLPGSLQRSRSDIDVNAAAGAKAHHAAGQAVRSGRLGAGALNPGSYASLEDTSDKMDGTASEDGRVRAKLSTPLVAVGNAKTDSRGRSRTKMVSQSQPGSRSGSPGRVLTTTALSTVSSGAQRILVNSASAQKRSKIPRSQGCSREASPSRLSVARSSRIPRPSVSQGCSREASRESSRDTSPVRSFQPLGPGYGMSQSSRLSSSVSAMRVLNTGSDVEEAVADALLLGDIRTKKKPARRRYESYGMHSDDDANSDASSACSERSYSSRNGSIPTYMRQTEDVAEVLNRCASSNWSERKEGLLGLQNLLKNQRTLSRVELKRLCEIFTRMFADPHGKVFSMFLETLVDFIQVHKDDLQDWLFVLLTQLLKKMGADLLGSVQAKVQKALDVTRESFPNDLQFNILMRFTVDQTQTPSLKVKVAILKYIETLAKQMDPGDFINSSETRLAVSRVITWTTEPKSSDVRKAAQSVLISLFELNTPEFTMLLGALPKTFQDGATKLLHNHLRNTGNGTQSSMGSPLTRPTPRSPANWSSPLTSPTNTSQNTLSPSAFDYDTENMNSEDIYSSLRGVTEAIQNFSFRSQEDMSEPLKRDPKKEDGDTVCSGPGMSDPRAGGDAPDSSQPALDNKASLLHSVPLHSSPRSRDYNPYNYSDSISPFNKSALKEAMFDDDADQFPDDLSLDHSDLVAELLKELSNHNERIEERKIALYELMKLTQEESFSVWDEHFKTILLLLLETLGDKEPTIRALALKVLKEILRHQPARFKNYAELTVMKTLEAHKDPHKEVVRSAEEAASVLATSISPEQCIKVLCPIIQTADYPINLAAIKMQTKVIERVSKETLNLLLPEIMPGLIQGYDNSESSVRKACVFCLVAVHAVIGDELKPHLSQLTGSKMKLLNLYIKRAQTGSAGADPTTDVSGQS", "modifications": "phosphorylated at S436"}, "B3": {"name": "Histone H1.4: PKGIα substrate, phospho site S36 (protein, UniProt P43274 2-219, looked up)", "Histone H1.4": "SETAPAAPAAPAPAEKTPVKKKARKAAGGAKRKTSGPPVSELITKAVAASKERSGVSLAALKKALAAAGYDVEKNNSRIKLGLKSLVSKGTLVQTKGTGASGSFKLNKKAASGEAKPKAKRAGAAKAKKPAGAAKKPKKAAGTATAKKSTKKTPKKAKKPAAAAGAKKAKSPKKAKATKAKKAPKSPAKAKTVKPKAAKPKTSKPKAAKPKKTAAKKK", "modifications": "phosphorylated at S36"}, "B4": {"name": "Heat shock protein beta-6: PKGIα substrate, phospho site S16 (protein, UniProt P97541 1-162, looked up)", "Heat shock protein beta-6": "MEIRVPVQPSWLRRASAPLPGFSTPGRLFDQRFGEGLLEAELASLCPAAIAPYYLRAPSVALPTAQVPTDPGYFSVLLDVKHFSPEEISVKVVGDHVEVHARHEERPDEHGFIAREFHRRYRLPPGVDPAAVTSALSPEGVLSIQATPASAQASLPSPPAAK", "modifications": "phosphorylated at S16"}, "B5": {"name": "Lyrm1 pS110 (protein, UniProt B2RYU8 1-122, looked up)", "LYR motif-containing protein 1": "MTAASRQEVLGLYRSFFRLARKWQAASGQMEDTIKEKQYILNEARTLFQKNKNLTDPDLIKQCIDECTARIEIGLHYQIPYPRPIHLPPMGLTPRRGRGLQTQEKLRKFSKPLYLKSHDEVS", "modifications": "phosphorylated at S110"}, "B6": {"name": "Cytoplasmic dynein 1 light intermediate chain 1: PKGIα substrate, phospho sites T408 (r11) and S412 (r12) (protein, UniProt Q9QXU8 1-523, looked up)", "Cytoplasmic dynein 1 light …": "MAAVGRVGSFGSSPPGLASTYASGPLANELASGSGGPAAGDDEDGQNLWSRILREVSTRSRSKLPTGKNVLLLGEDGAGKTSLIRRIQGIEEYKKGRGLEYLYLNVHDEDRDDQTRCNVWILDGDLYHKGLLKFSLDALSLRDTLVMLVVDMSKPWTALDSLQKWASVVREHVDKLKIPPEEMKEMEQKLIRDFQEYVEPGEDFPASPQRRATAAQEDRDDSVVLPLGADTLTHNLGLPVLVVCTKCDAISVLEKEHDYRDEHFDFIQSHIRKFCLQYGAALIYTSVKENKNIDLVYKYIVQKLYGFPYKIPAVVVEKDAVFIPAGWDNDKKIGILHENFQTLKIEDNFEDIITKPPVRKFVHEKEIMAEDDQVFLMKLQSLLAKQPPTAAGRPVDASPRVPGGSPRTPNRSVSSNVASVSPIPAGSKKIDPNMKAGATSEGVLANFFNSLLSKKTGSPGGPGVGGSPGGGAAGASTSLPPSAKKSGQKPVLSDVHAELDRITRKPASVSPTTPPSPTEGEAS", "modifications": "phosphorylated at T408 and S412"}}, "key": {"[1]": {"system": "PKGIα (analogue-sensitive C42S/M438G), cGMP-activated", "test": "Chemical genetic phosphoproteomic screen, cGMP-activated PKGIα C42S/M438G versus unactivated control", "format": "biochemical, human PKGIα; substrates in rat heart homogenate", "conditions": "n=4", "text": "(§1) We employed a chemical genetic method[18] to identify direct substrates of cGMP-activated PKGIα and disulfide bond-activated PKGIα in heart tissue. This method involves mutation of the ATP binding-site of the kinase of interest so that it can accept a ‘bulky' N6-alkylated ATP analogue for example, N6^−phenylethyl ATP. An oxygen atom on the γ phosphate is also replaced with a sulfur atom—giving an N6-alkylated ATPγS analogue—so that the mutant kinase catalyses the transfer of a thiophosphate group (–PO3S^3−) to its substrates instead of a phosphate. The thiophosphate group is nucleophilic, providing a basis for substrates of the analogue-sensitive kinase to be purified by a ‘covalent capture' protocol. LC–MS/MS allows identification of the substrate and localization of the phosphorylation site. Thiophosphorylated proteins can also be detected with a thiophosphate ester-specific antibody. Analogue-sensitive mutants of PKGIα and PKGIα C42S (which cannot form the activating intermolecular disulfide bond) were generated by mutating Met438 in the ATP-binding domain to Gly. This mutation was chosen based on a previous study where an analogue-sensitive mutant of the catalytic subunit of PKA—which shares sequence homology with PKGIα—was engineered. Detailed protocols are given below.\n(§2) A pCDNA3 expression vector encoding human FLAG-tagged PKGIα (ref. [41]) underwent site-directed mutagenesis to generate constructs for untagged WT, C42S, M438G and C42S/M438G PKGIα. Mutations were introduced using the QuikChange II Site-Directed Mutagenesis Kit (Agilent) according to the manufacturer's instructions. Expression and purification of the PKGIα mutants was performed according to a published method[42] as follows: suspension FreeStyle 293-F cells (ThermoFisher Scientific) were transfected with the appropriate PKGIα construct using the stable cationic polymer polyethyleneimine (PEI) as a transfection reagent. After ∼72 h cells were harvested by centrifugation (400g; room temperature; 15 min), re-suspended in ice cold lysis buffer (25 mM sodium phosphate buffer pH 6.8; 10 mM ethylenediaminetetraacetic acid (EDTA); 100 mM NaCl; 10 mM benzamidine hydrochloride; and 10 mM dithiothreitol (DTT)) and frozen in liquid N2. Cells were lysed by three freeze (liquid N2)-thaw (37 °C) cycles and the lysate was clarified by centrifugation at 140,000g and 4 °C for 30 min. The soluble protein fraction was loaded onto a pre-equilibrated 8-(2-aminoethylamino)adenosine-3′, 5′-cyclic monophosphate column (8-AEA-cAMP agarose; BioLog, Germany) followed by washing with 20 column volumes of lysis buffer. The column was further washed with lysis buffer +3 M NaCl (5 column volumes) and PKGIα was then eluted with lysis buffer +150 mM NaCl and 500 μM cAMP. Removal of cAMP and buffer exchange was achieved by extensive dialysis against 25 mM sodium phosphate buffer pH 6.8, 2 mM EDTA and 100 mM NaCl. For ITC analysis, WT PKGIα was incubated with 10 mM lipoic acid for 2 h on ice to obtain ∼100% disulfide dimer (confirmed by SDS-PAGE). Oxidized WT or C42S PKGIα was further purified by size exclusion chromatography using a HiLoad 16/600 Superdex 200 pg column (GE Healthcare) with 50 mM sodium phosphate buffer pH 7.4 and 100 mM NaCl. Proteins were concentrated using Amicon Ultra centrifugal filter devices (Merck Millipore). DTT was absent in storage buffers so that the activating disulfide bond would not be reduced and so that the PKGIα M438G mutant would be oxidized to disulfide dimer in the presence of air (confirmed by SDS-PAGE). Protein concentration was determined by Pierce BCA assay (ThermoFisher) and enzyme activity was confirmed using the Omnia kinase assay kit (ThermoFisher).\n(§3) Male Wistar rats (9–10 weeks; body weight 300–330 g) were euthanized by intraperitoneal injection of sodium pentobarbitone (200 mg kg^−1) with heparin (500 USP units). […]"}, "[2]": {"system": "PKGIα (analogue-sensitive M438G), disulfide-activated", "test": "Chemical genetic phosphoproteomic screen, disulfide-activated PKGIα M438G versus unactivated control", "format": "biochemical, human PKGIα; substrates in rat heart homogenate", "conditions": "for Log2 fold change in phosphorylation, Disulfide versus control: n=4", "text": "as §1, §2, §3"}, "[3]": {"conditions": "PKGIα C42S/M438G + 100 μM cGMP vs basal, 1 h, 30 °C, pH 7.5, rat heart homogenate, label-free LC–MS/MS, * P<0.05 Dunnett: all values except phospholamban S16"}, "[4]": {"conditions": "disulfide-activated PKGIα M438G vs basal, 1 h, 30 °C, pH 7.5, rat heart homogenate, label-free LC–MS/MS, * P<0.05 Dunnett: only phospholamban S16"}}, "note": "“And” between values parts separate entries of the source, which are not always exact repeats. Equal values may be shown once."}
{"molecule": "B1", "values": [{"measurement": "Log2 fold change in phosphorylation, cGMP versus control", "setting": "[1]; [3]", "value": "2.93*"}, {"measurement": "Log2 fold change in phosphorylation, Disulfide versus control", "setting": "[2]; [4]", "value": 1.04}]}
{"molecule": "B2", "values": [{"measurement": "Log2 fold change in phosphorylation, cGMP versus control", "setting": "[1]; [3]", "value": "1.79*"}, {"measurement": "Log2 fold change in phosphorylation, Disulfide versus control", "setting": "[2]; [4]", "value": 0.86}]}
{"molecule": "B3", "values": [{"measurement": "Log2 fold change in phosphorylation, cGMP versus control", "setting": "[1]; [3]", "value": "1.30*"}, {"measurement": "Log2 fold change in phosphorylation, Disulfide versus control", "setting": "[2]; [4]", "value": 0.48}]}
{"molecule": "B4", "values": [{"measurement": "Log2 fold change in phosphorylation, cGMP versus control", "setting": "[1]; [3]", "value": "2.61*"}, {"measurement": "Log2 fold change in phosphorylation, Disulfide versus control", "setting": "[2]; [4]", "value": 1.25}]}
{"molecule": "B5", "values": [{"measurement": "log2 fold change Disulfide vs Control", "setting": "[2]; control = PKGIα C42S/M438G", "value": "0.4439 and 0.5384"}]}
{"molecule": "B6", "values": [{"measurement": "Log2 fold change in phosphorylation, cGMP versus control", "setting": "[1]; [3]", "value": "3.76*"}, {"measurement": "Log2 fold change in phosphorylation, cGMP versus control", "setting": "[1]; phospho site S412 (second site of this protein), * P<0.05", "value": "4.15*"}, {"measurement": "Log2 fold change in phosphorylation, Disulfide versus control", "setting": "[2]; [4]", "value": 1.95}, {"measurement": "Log2 fold change in phosphorylation, Disulfide versus control", "setting": "[2]; phospho site S412 (second site of this protein), not significant", "value": 1.66}]}
